In publication PMC5688852:

Biological target: T1, TTP-2D (tristetraprolin, both CCCH zinc fingers) (UniProt P22893)
T1 sequence: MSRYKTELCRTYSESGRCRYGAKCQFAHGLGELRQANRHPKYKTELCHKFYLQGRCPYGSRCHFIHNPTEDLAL
Assay: fluorescence anisotropy

**Q.** Does UUUAUUUAUUU (ssRNA) [UUUAUUUAUUU-F (AU-rich element)] bind?
**A.** binds
